According to patent US11780901B2, “Analogues of parathyroid hormone (1-34) that function as agonists of the parathyroid hormone receptor-1 and display modified activity profiles” (Wisconsin Alumni Research Foundation, priority 2013, dated 2023):
Residue numbers refer to the chain shown, from its start. Read-outs that look alike come from different tables or passages of the source.

Legend:
[1] = molecular target: T1, PTHR1-L2891 (Homo sapiens, UniProt Q03431, L289I); test: Activation of PTHR1 mutant PTHR1-L2891; format: cell-based; settings: data not shown
T1 construct: expressed in transfected cells
T1 sequence (Q03431 27-593 L289I): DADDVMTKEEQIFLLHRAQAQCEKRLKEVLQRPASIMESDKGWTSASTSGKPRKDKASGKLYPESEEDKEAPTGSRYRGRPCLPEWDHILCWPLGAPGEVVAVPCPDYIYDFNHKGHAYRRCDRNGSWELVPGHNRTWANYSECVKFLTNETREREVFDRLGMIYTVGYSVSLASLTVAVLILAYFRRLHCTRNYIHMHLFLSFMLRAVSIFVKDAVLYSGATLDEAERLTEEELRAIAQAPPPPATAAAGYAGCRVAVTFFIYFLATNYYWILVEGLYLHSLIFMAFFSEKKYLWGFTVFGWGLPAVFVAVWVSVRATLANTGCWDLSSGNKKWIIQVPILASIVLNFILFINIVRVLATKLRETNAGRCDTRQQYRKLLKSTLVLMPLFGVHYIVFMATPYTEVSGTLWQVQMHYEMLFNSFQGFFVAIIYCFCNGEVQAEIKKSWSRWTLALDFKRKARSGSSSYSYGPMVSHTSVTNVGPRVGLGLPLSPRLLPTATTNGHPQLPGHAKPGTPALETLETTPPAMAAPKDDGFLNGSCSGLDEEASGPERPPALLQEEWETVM
Description: (§1) Reciprocal point mutations of PTHR1 were investigated to see if they would enhance the signaling activity of PTHR2-selective agonists.

[2] = molecular target: T2, PTHR1-1363Y (Homo sapiens, UniProt Q03431, I363Y); test: Activation of PTHR1 mutant PTHR1-1363Y; format: cell-based; settings: data not shown
T2 construct: expressed in transfected cells
T2 sequence (Q03431 27-593 I363Y): T1 sequence (Q03431 27-593 L289I) with I263L, I337Y
Description: as §1

[3] = molecular target: T3, PTHR1 (Homo sapiens, UniProt Q03431); test: PTHR1 activation, cAMP production (GloSensor) in HEK293 cells; format: cell-based; set-up: expressed in transfected cells; settings: wild-type PTHR1
T3 sequence (Q03431 27-593): T1 sequence (Q03431 27-593 L289I) with I263L

[4] = molecular target: T4, PTHR2 (Homo sapiens, UniProt P49190); test: Wash-out assay, duration of PTHR2 activation; format: cell-based; set-up: expressed in transfected cells; host or cells: cells stably expressing PTHR2; settings: PTHR2; agonist at ~EC80; PTH(1-34)-NH2 = 100
T4 sequence (P49190 25-550): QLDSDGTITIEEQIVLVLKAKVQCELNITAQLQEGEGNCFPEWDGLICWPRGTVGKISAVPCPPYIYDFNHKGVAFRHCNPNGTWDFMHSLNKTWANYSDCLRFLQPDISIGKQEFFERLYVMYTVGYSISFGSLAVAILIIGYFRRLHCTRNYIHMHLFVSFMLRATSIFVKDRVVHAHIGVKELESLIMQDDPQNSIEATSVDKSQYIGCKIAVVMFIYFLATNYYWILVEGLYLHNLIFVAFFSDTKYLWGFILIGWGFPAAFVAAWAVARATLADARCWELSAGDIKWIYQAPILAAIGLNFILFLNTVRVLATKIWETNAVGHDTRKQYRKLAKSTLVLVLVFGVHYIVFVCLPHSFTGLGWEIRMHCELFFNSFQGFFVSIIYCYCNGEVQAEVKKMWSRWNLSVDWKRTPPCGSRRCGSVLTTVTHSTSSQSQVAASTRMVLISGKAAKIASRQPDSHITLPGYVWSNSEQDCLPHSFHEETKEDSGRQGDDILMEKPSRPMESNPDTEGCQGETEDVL
Description: (§2) Duration of activation for PTHR1 and PTHR2. To assess the duration of PTHR1 and PTHR2 activation induced by α/β-peptides 14 and 15, the time course of cAMP production by each receptor was examined after stimulation with an agonist and subsequent washing of the cells to remove unbound peptide (wash-out assay). […] During the initial “ligand-on” phase, cells stably expressing PTHR1 or PTHR2 were stimulated with an agonist concentration corresponding to ˜EC80; the medium contained D-luciferin. […] After the addition of fresh medium containing D-luciferin, the luminescence decay is measured. The area under the “ligand-off” curve (AUC) reflects the duration of signaling, which may be related to residence time of the agonist on the receptor but could have other origins at the molecular level.

[5] = molecular target: T5, R^0 state of PTHR1 (Homo sapiens, UniProt Q03431); settings: relative to PTH (1-34); cited from earlier work
T5 construct: expressed in transfected cells; host or cells: COS-7, transient; membranes
T5 sequence (Q03431 27-593): T1 sequence (Q03431 27-593 L289I) with I263L

[6] = molecular target: T3, PTHR1; test: Functional selectivity (Gs activation/cAMP production vs βarr recruitment); format: cell-based; set-up: expressed in transfected cells; host or cells: cells stably expressing PTHR1; settings: cAMP activation vs βarr1 and βarr2 recruitment, relative to PTH (1-34)
Protocol: More specifically, the initial studies that yielded the compounds disclosed and claimed herein were conducted to determine whether there is a correlation between βarr recruitment and receptor residence time of a PTHR1 agonist. The initial studies were thus conducted in two steps. First, the functional selectivity (Gs activation as indicated by cAMP production vs. βarr recruitment) of several PTHR1 agonists that display substantial differences in signaling duration were evaluated. Second, novel PTHR1 agonists were designed that have high functional selectivity and evaluated the signaling duration of these biased agonists.
(§3) The functional selectivity of BA058 is more significant than that of PTHrP. […] LA-PTH is a long-acting PTH analog. […] The middle panels in FIG. 2 are graphs depicting, from left-to-right: βarr1 and βarr2 recruitment, presented as normalized BRET signals (bioluminescence resonance energy transfer) as a function of the log of the peptide concentration, and cAmp activation presented as normalized RLU signals (relative light units) as a function of the log of the peptide concentration. Red=PTH. Orange=LA=LA−PTH. Blue=BA058. Green=PTHrP. (BRET assays are well known and suitable kits are available commercially. See, for example, Promega's “NanoBRET” kits, catalogs nos. N1821 and N1811; Promega Corporation, Fitchburg, Wis.). The table at the bottom of FIG. 2 presents the pEC50 and Emax values for the […] and βarr2 recruitment and cAMP activation. FIG. 3 presents the data for the bias of the activity—either toward βarr recruitment or cAMP activation.
Incorporating (R*)-β^2Leu/(D)-Leu at the 7th position or (R*)-β^2Nle at the 8th position leads to high Gs-biased agonism. […] (D)-Nle is poorly tolerated at the 8th position for both cAMP signaling and βarr recruitment. The top panels in FIG. 5 are graphs depicting, from left-to-right: βarr1 and βarr2 recruitment, presented as normalized BRET signals as a function of the log of the peptide concentration, and cAmp activation presented as normalized RLU signals as a function of the log of the peptide concentration. […]

[7] = tested on: PTHR2 ECL1 chimera; test: Activation of PTHR2 variant, ECL1 chimera; format: cell-based; settings: 100 nM
Description: (§4) Molecular basis of PTHR1 vs. PTHR2 selectivity. Previous receptor-mutation studies have identified sites within PTHR1 and PTHR2 that play critical roles in determining peptide agonist selectivity.

[8] = molecular target: T6, PTHR2 I244L (Homo sapiens, UniProt P49190, I244L); test: Activation of PTHR2 variant I244L; format: cell-based; settings: 100 nM
T6 construct: expressed in transfected cells
T6 sequence (P49190 25-550 I244L): as the sequence (P49190 25-550) above, with I220L counted along it
Description: as §4

[9] = molecular target: T7, PTHR2 Y318I (Homo sapiens, UniProt P49190, Y318I); test: Activation of PTHR2 variant Y318I; format: cell-based; settings: 100 nM
T7 construct: expressed in transfected cells
T7 sequence (P49190 25-550 Y318I): as the sequence (P49190 25-550) above, with Y294I counted along it
Description: as §4

[10] = molecular target: T3, PTHR1; set-up: expressed in transfected cells; settings: previous studies; cited from earlier work
[11] = molecular target: T4, PTHR2; set-up: expressed in transfected cells; settings: previous studies; cited from earlier work
[12] = molecular target: T3, PTHR1; test: βarr recruitment (BRET); format: cell-based; set-up: expressed in transfected cells; host or cells: cells stably expressing PTHR1; settings: compared with PTH and LA-PTH
Description: as §3

[13] = molecular target: T3, PTHR1; test: Wash-out assay, duration of PTHR1 activation; format: cell-based; set-up: expressed in transfected cells; host or cells: cells stably expressing PTHR1; settings: PTHR1; agonist at ~EC80; PTH(1-34)-NH2 = 100
Description: as §2

[14] = molecular target: T4, PTHR2; test: Antagonism of PTHR2 activation by PTH(1-34)-NH2; format: cell-based; set-up: expressed in transfected cells; host or cells: cells stably expressing PTHR2; settings: FIG. 11
Description: Data points represent mean±s.e.m from four independent experiments. Curves were fit to the data using a four-parameter sigmoidal dose-response equation.
See Hoare, S. R. J., Clark, J. A. & Usdin, T. B. Molecular determinants of tuberoinfundibular peptide of 39 residues (TIP39) selectivity for the parathyroid hormone-2 (PTH2) receptor—N-terminal truncation of TIP39 reverses PTH2 receptor/PTH1 receptor binding selectivity. Journal of Biological Chemistry 275, 27274-27283 (2000) and Gardella, T. J., Luck, M. D., Jensen, G. S., Usdin, T. B. & Juppner, H. Converting parathyroid hormone-related peptide (PTHrP) into a potent PTH-2 receptor agonist.

Row | agonist activity at PTHR1-L2891 (in words) [1] | agonist activity at PTHR1-1363Y (in words) [2] | PTHR1 agonist activity (in words) [3] | Normalized ligand-on Emax [4] | agonist activity at PTHR2 I244L relative to wild-type PTHR2 (in words) [8] | agonist activity at PTHR2 Y318I relative to wild-type PTHR2 (in words) [9] | βarr recruitment efficacy maximum (in words) [12] | Normalized ligand-on Emax [13] | antagonism of PTHR2 activation by PTH(1-34)-NH2 (in words) [14] | Substance | R0 affinity (in words) [5] | signaling bias / functional selectivity (in words) [6] | agonist activity at PTHR2 ECL1 chimera relative to wild-type PTHR2 (in words) [7] | PTHR1 agonist activity (in words) [10] | PTHR2 agonist activity (in words) [11]
1 | very weak agonist | very weak agonist | does not activate | 99 ± 1 |  |  |  |  |  | TIP39-NH2: tuberoinfundibular peptide of 39 residues, naturally PTHR2-selective agonist [reference compound] |  |  |  |  | 
2 |  |  |  |  |  |  |  |  |  | LA-PTH: long-acting PTH analog (AVAEIQLMHQRAKWIQDARRRAFLHKLIAEIHTAEI; Long-acting (LA)-PTH, a parathyroid hormone analog) | high R0 affinity | biased toward βarr1 and βarr2 recruitment relative to cAMP activation |  |  | 
3 |  |  |  |  | much more susceptible to activation | much more susceptible to activation | lower efficacy βarr recruitment maximum | 102 ± 1 | antagonistic effect | PTHrP(1-36)-NH2: parathyroid hormone-related protein fragment, naturally PTHR1-selective agonist | moderate | biased toward cAMP activation relative to both βarr1 and βarr2 recruitment | much more susceptible to activation | potent agonist | very weak agonist
